For data set [1], the target named is T1, CPSF73 (Homo sapiens, UniProt Q9UKF6).
T1 construct: gene CPSF3; CPSF73 within the purified recombinant seven-subunit CPSF complex (mPSF + mCF); with CPSF subunits (CPSF100, symplekin, CPSF160, WDR33, CPSF30, hFip1) with CStF, CFIIm and RBBP6 (1-335)
Put plainly: in vitro SV40 pre-mRNA cleavage assay with purified proteins, dose response by denaturing gel. The data set is classed as biochemical.

The target in data set [2] is T2, mammalian cleavage factor (mCF), wild type: CPSF73, CPSF100 and symplekin (human, UniProt Q9UKF6 1-684; Q9P2I0 1-782; Q92797 1-1274).
T2 construct: CPSF73, human; synthetic gene for the full-length protein; CPSF100, human; symplekin, human; full coding region; also called mCFWT; source: Sf9 insect cells (baculovirus, pBig1), purified (Strep-Tactin, Resource Q, Superose 6); not shown: TEV site-StrepII (SII), C-terminal, kept; copies: + +
T2 sequence (Q9UKF6 whole entry, chain 1 of 3): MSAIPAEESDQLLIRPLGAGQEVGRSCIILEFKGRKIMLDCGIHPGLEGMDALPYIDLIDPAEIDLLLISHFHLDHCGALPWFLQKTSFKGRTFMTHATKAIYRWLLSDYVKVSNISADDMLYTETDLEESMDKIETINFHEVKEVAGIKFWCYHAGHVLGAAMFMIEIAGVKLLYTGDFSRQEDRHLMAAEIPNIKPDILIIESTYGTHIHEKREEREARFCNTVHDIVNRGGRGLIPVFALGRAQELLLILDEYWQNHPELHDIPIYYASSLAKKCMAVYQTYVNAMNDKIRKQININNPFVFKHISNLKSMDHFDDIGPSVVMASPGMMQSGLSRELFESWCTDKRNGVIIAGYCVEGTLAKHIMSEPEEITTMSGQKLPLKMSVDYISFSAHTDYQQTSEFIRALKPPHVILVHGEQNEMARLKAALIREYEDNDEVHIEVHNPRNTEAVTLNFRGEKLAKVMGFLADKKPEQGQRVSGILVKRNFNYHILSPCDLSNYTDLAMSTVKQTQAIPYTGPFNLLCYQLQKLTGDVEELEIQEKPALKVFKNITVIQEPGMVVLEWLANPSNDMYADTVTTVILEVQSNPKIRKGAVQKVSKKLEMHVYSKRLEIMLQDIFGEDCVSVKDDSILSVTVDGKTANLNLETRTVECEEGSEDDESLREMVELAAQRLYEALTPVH
T2 sequence (Q9P2I0 whole entry, chain 2 of 3): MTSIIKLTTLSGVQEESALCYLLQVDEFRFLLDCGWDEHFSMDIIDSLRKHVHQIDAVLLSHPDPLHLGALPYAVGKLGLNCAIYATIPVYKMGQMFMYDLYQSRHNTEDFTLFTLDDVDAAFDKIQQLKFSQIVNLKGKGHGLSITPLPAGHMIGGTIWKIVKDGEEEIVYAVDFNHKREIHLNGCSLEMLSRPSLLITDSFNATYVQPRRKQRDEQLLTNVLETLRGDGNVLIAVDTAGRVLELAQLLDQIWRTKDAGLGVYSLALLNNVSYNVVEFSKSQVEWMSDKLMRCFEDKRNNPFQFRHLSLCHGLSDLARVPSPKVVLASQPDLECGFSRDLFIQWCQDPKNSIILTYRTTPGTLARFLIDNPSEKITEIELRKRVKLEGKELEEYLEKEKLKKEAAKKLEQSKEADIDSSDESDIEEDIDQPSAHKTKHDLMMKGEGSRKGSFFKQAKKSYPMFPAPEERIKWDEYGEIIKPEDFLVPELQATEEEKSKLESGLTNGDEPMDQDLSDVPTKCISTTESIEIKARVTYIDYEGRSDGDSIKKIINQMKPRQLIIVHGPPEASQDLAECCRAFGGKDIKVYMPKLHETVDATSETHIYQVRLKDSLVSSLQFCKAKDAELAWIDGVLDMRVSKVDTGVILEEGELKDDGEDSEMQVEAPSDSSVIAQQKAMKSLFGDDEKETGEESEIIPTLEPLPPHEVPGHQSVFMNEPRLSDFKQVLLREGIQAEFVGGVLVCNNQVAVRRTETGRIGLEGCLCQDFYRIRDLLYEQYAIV
T2 sequence (Q92797 whole entry, chain 3 of 3): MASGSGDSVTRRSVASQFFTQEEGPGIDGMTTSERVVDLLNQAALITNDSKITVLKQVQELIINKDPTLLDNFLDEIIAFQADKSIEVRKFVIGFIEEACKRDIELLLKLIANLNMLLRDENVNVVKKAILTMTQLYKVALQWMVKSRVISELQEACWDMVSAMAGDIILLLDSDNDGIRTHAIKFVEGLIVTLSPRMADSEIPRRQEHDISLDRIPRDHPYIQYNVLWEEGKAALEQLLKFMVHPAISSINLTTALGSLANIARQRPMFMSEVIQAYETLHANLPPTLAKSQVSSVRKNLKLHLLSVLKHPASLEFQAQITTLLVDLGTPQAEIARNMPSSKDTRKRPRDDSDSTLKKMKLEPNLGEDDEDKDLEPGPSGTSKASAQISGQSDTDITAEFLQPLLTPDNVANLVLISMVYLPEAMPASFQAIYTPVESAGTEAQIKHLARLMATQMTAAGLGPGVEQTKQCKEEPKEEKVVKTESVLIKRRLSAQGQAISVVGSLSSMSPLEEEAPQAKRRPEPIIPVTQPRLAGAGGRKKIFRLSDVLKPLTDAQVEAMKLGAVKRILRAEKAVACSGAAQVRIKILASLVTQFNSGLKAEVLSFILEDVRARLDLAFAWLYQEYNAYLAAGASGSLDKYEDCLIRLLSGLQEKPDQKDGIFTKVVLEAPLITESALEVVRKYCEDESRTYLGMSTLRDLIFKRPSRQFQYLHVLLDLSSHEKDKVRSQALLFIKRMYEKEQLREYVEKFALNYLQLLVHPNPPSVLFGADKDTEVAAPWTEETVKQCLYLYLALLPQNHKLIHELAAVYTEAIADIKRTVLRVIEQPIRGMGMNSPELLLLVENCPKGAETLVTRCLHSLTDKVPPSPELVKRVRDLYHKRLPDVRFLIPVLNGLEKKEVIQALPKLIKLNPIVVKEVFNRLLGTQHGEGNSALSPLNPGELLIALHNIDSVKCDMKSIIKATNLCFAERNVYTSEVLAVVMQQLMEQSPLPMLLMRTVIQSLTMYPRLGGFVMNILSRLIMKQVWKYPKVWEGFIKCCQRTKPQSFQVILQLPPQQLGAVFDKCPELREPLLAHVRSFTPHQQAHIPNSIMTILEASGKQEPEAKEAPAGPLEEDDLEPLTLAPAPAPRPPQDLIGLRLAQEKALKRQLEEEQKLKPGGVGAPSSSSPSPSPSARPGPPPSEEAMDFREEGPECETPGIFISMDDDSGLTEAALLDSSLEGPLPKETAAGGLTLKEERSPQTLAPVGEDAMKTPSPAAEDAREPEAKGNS
Put plainly: SEC; 2.5 µM CPSF, mCF or mCF_(symplekin ΔNTD) incubated with 10 µM SSU72 for 30 min on ice; Superose 6 Increase 3.2/300; HEPES-NaOH pH 8.0, 150 mM NaCl, 0.5 mM TCEP; peak fractions on SDS-PAGE. As to conditions: both partners purified. (SEC sorts molecules by how far they enter the pores of the column.)

The target in data set [3] is T3, cleavage and polyadenylation specificity factor (CPSF), recombinant seven-subunit complex with hFip1 isoform 4 (human, UniProt Q10570 1-1443; Q9C0J8 1-576; O95639-2 1-244; Q6UN15 1-28; Q6UN15 44-393; Q9UKF6 …, F393K).
T3 construct: CPSF160, human; synthetic codon-optimised gene for the full-length protein; WDR33, human, residues 1-576 (unstructured region removed); CPSF30, human, isoform 2 (short isoform); synthetic gene for the isoform; hFip1, human; isoform 4 (UniProt Q6UN15-4) was built from residues 1-28 and 44-393 of the full-length protein; this piece is 1-28; second piece of isoform 4 (UniProt Q6UN15-4): residues …
Described as above. As to conditions: both partners purified.

Data set [4] addresses CPSF (seven subunits);RBBP6 1-335 (Homo sapiens;Homo sapiens, UniProt Q10570;Q9C0J8;O95639;Q6UN15-4;Q9UKF6;Q9P2I0;Q92797;Q7Z6E9 …, internal_change|). Put plainly: size exclusion chromatography; 2.5 uM CPSF, 7.5 uM RBBP6, 5 uM RNA; RBBP6 substoichiometric; EMSA: 100 nM RNA, 15 min on ice, 10% native PAGE at 4 C (binding buffer not stated); SEC: HEPES-NaOH pH 8.0, 50 mM NaCl, 0.5 mM TCEP; pull-down: 20 mM HEPES-NaOH pH 8.0, 50 mM NaCl, 0.5 mM TCEP, 2 mM Mg(OAc)2, 4 C. As to conditions: protein: recombinant;recombinant; tags: StrepII on WDR33 and symplekin;C-terminal TEV-StrepII; copies: 1;1;1;1;1;1;1;1; label: 5'-FAM.

In data set [5] the target is T4, RBBP6 1-335 (Homo sapiens, UniProt Q7Z6E9 1-335).
T4 sequence: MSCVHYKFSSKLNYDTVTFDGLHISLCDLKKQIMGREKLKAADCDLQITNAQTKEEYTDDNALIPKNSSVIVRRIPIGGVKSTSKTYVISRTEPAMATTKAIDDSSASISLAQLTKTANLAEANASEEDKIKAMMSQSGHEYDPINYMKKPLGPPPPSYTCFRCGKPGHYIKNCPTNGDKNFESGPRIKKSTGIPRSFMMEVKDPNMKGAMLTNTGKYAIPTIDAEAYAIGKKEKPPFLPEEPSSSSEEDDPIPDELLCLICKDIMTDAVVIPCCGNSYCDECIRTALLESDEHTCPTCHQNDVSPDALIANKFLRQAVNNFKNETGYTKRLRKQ
Nature of the data set: EMSA; no CPSF; 100 nM RNA; EMSA: 100 nM RNA, 15 min on ice, 10% native PAGE at 4 C (binding buffer not stated); SEC: HEPES-NaOH pH 8.0, 50 mM NaCl, 0.5 mM TCEP; pull-down: 20 mM HEPES-NaOH pH 8.0, 50 mM NaCl, 0.5 mM TCEP, 2 mM Mg(OAc)2, 4 C. As to conditions: protein: recombinant; tags: C-terminal TEV-StrepII; label: 5'-FAM.

Data set [6] deals with T5, RBBP6 Y228G (Homo sapiens, UniProt Q7Z6E9 1-335, Y228G).
T5 sequence: T4 sequence with Y228G
Put plainly: EMSA; no CPSF; binding unaffected vs WT; EMSA: 100 nM RNA, 15 min on ice, 10% native PAGE at 4 C (binding buffer not stated); SEC: HEPES-NaOH pH 8.0, 50 mM NaCl, 0.5 mM TCEP; pull-down: 20 mM HEPES-NaOH pH 8.0, 50 mM NaCl, 0.5 mM TCEP, 2 mM Mg(OAc)2, 4 C. As to conditions: protein: recombinant; tags: C-terminal TEV-StrepII; label: 5'-FAM.

Data set [7] has as its target T6, RBBP6 P195G (Homo sapiens, UniProt Q7Z6E9 1-335, P195G).
T6 sequence: T4 sequence with P195G
The description is as above. As to conditions: protein: recombinant; tags: C-terminal TEV-StrepII; label: 5'-FAM.

In data set [8] the target is T7, RBBP6 D43K R74E (Homo sapiens, UniProt Q7Z6E9 1-335, D43K;R74E).
T7 sequence: T4 sequence with D43K, R74E
The data set is described as above. As to conditions: protein: recombinant; tags: C-terminal TEV-StrepII; label: 5'-FAM.

By IC50 is commonly meant the concentration needed to halve the response being measured. A high value points to weaker potency.

Numbering of substitutions follows the chain as printed.

As to `CN1CCN(CCOc2c(Cl)cc(C(=O)N[C@@H](Cc3ccccc3)C(=O)O)c(O)c2Cl)CC1` [JTE-607 acid], the IC50 in data set [1] was approximately 350 nM.

B1: SSU72 (enzyme, human, UniProt Q9NP77 1-194, looked up)
chain: MPSSPLRVAVVCSSNQNRSMEAHNILSKRGFSVRSFGTGTHVKLPGPAPDKPNVYDFKTTYDQMYNDLLRKDKELYTQNGILHMLDRNKRIKPRPERFQNCKDLFDLILTCEERVYDQVVEDLNSREQETCQPVHVVNVDIQDNHEEATLGAFLICELCQCIQHTEDMENEIDELLQEFEEKSGRTFLHTVCFY
notes: SSU72, human; the coding region amplified from the synthetic full-length gene; also called human SSU72; phosphatase SSU72; source: E. coli BL21(DE3) Star, purified (HisTrap, 3C cleavage, Superdex 75); not shown: His6, N-terminal, cleaved
Regarding B1, the binding result in data set [2] and in data set [3] was “binds” each time.
Consider AUGAUCUAGGAGACACAAUAAAGGCAAUGUUUUUAUUUGUA (ssRNA) [5'-FAM-L3 41-nt RNA], for which the binding result in data set [4], in data set [5], in data set [6], in data set [7] and in data set [8] was “binds” throughout.

(Values after PMC8887125, “RBBP6 activates the pre-mRNA 3′ end processing machinery in humans” (Genes & Development, 2022).)
